The nature of this data set: total protein half-life in vivo (active degradation + dilution); higher = more stable protein.
The mark [1] stands for this setting: E. coli NCM3722 delta-clpP delta-lon delta-hslV, growth: N-lim chemostat, doubling time 6 h.
The mark [2] stands for this setting: E. coli NCM3722 delta-clpP, growth: N-lim chemostat, doubling time 6 h.
Where [3] appears, read: E. coli NCM3722 delta-hslV, growth: N-lim chemostat, doubling time 6 h.
The mark [4] stands for this setting: E. coli NCM3722 delta-lon, growth: N-lim chemostat, doubling time 6 h.
Setting [5] is: E. coli NCM3722 delta-smpB, growth: N-lim chemostat, doubling time 6 h.
The mark [6] stands for this setting: wild type E. coli NCM3722, growth: C-lim chemostat, doubling time 3 h.
Where [7] appears, read: wild type E. coli NCM3722, growth: C-lim chemostat, doubling time 6 h.
[8] abbreviates: wild type E. coli NCM3722, growth: C-lim chemostat, doubling time 12 h.
Setting [9] is: wild type E. coli NCM3722, growth: N-lim chemostat, doubling time 6 h.
The mark [10] stands for this setting: wild type E. coli NCM3722, growth: N-lim chemostat, doubling time 12 h.
Where [11] appears, read: wild type E. coli NCM3722, growth: P-lim chemostat, doubling time 6 h.
[12] abbreviates: wild type E. coli NCM3722, growth: P-lim chemostat, doubling time 12 h.

± gives the standard deviation of the averaged measurements.

As to “MNLQHHFLIAMPALQDPIFRRSVVYICEHNTNGAMGIIVNKPLENLKIEGILEKLKITPEPRDESIRLDKPVMLGGPLAEDRGFILHTPPSNFASSIRISDNTVMTTSRDVLETLGTDKQPSDVLVALGYASWEKGQLEQEILDNAWLTAPADLNILFKTPIADRWREAAKLIGVDILTMPGVAGHA [P0A8W5]”, the “total protein half-life in vivo” value is, setting by setting: under setting [1], 4.47 ± 0.45 h; under setting [2], 5.88 ± 1.8 h; under setting [3], 4.32 ± 0.34 h; under setting [4], 2.88 ± 0.18 h; under setting [5], 4.027 ± 0.034 h; under setting [6], 2.93 ± 0.32 h. Besides, the “total protein half-life in vivo” value reads like this: under setting [7], 5.38 ± 0.81 h; under setting [8], 8.21 ± 0.33 h; under setting [9], 4.39 ± 0.34 h; under setting [10], 6.81 ± 0.54 h; under setting [11], 5.075 ± 0.018 h; under setting [12], 10.2 ± 2.2 h.

As to “MTTIVDSNLPVARPSWDHSRLESRIVHLGCGAFHRAHQALYTHHLLESTDSDWGICEVNLMPGNDRVLIENLKKQQLLYTVAEKGAESTELKIIGSMKEALHPEIDGCEGILNAMARPQTAIVSLTVTEKGYCADAASGQLDLNNPLIKHDLENPTAPKSAIGYIVEALRLRREKGLKAFTVMSCDNVRENGHVAKVAVLGLAQARDPQLAAWIEENVTFPCTMVDRIVPAATPETLQEIADQLGVYDPCAIACEPFRQWVIEDNFVNGRPDWDKVGAQFVADVVPFEMMKLRMLNGSHSFLAYLGYLGGYETIADTVTNPAYRKAAFALMMQEQAPTLSMPEGTDLNAYATLLIERFSNPSLRHRTWQIAMDGSQKLPQRLLDPVRLHLQNGGSWRHLALGVAGWMRYTQGVDEQGNAIDVVDPMLAEFQKINAQYQGADRVKALLGLSGIFADDLPQNADFVGAVTAAYQQLCERGARECVAAL”, the “total protein half-life in vivo” value under setting [1] came out at 4.94 ± 2.6 h; the “total protein half-life in vivo” value under setting [2] was determined as 3.08 ± 0.24 h; the “total protein half-life in vivo” value under setting [3] came to 3.228 ± 0.01 h; the “total protein half-life in vivo” value under setting [4] stood at 3.47 ± 0.17 h; the “total protein half-life in vivo” value under setting [5] worked out at 2.96 ± 0.24 h; the “total protein half-life in vivo” value under setting [6] came out at 2.91 ± 0.27 h. In addition, the “total protein half-life in vivo” value reads like this: under setting [7], 4.32 ± 0.52 h; under setting [8], 7.28 ± 2.2 h; under setting [9], 3.33 ± 0.044 h; under setting [10], 6.19 ± 2.3 h; under setting [11], 5.28 ± 0.23 h; under setting [12], 9.27 ± 0.21 h.

On to “MLQISHLYADYGGKPALEDINLTLESGELLVVLGPSGCGKTTLLNLIAGFVPYQHGSIQLAGKRIEGPGAERGVVFQNEGLLPWRNVQDNVAFGLQLAGIEKMQRLEIAHQMLKKVGLEGAEKRYIWQLSGGQRQRVGIARALAANPQLLLLDEPFGALDAFTRDQMQTLLLKLWQETGKQVLLITHDIEEAVFMATELVLLSSGPGRVLERLPLNFARRFVAGESSRSIKSDPQFIAMREYVLSRVFEQREAFS”, for which the “total protein half-life in vivo” value under setting [1] was determined as 4.76 h.

For “MRIGMRLLLGYFLLVAVAAWFVLAIFVKEVKPGVRRATEGTLIDTATLLAELARPDLLSGDPTHGQLAQAFNQLQHRPFRANIGGINKVRNEYHVYMTDAQGKVLFDSANKAVGQDYSRWNDVWLTLRGQYGARSTLQNPADPESSVMYVAAPIMDGSRLIGVLSVGKPNAAMAPVIKRSERRILWASAILLGIALVIGAGMVWWINRSIARLTRYADSVTDNKPVPLPDLGSSELRKLAQALESMRVKLEGKNYIEQYVYALTHELKSPLAAIRGAAEILREGPPPEVVARFTDNILTQNARMQALVETLLRQARLENRQEVVLTAVDVAALFRRVSEARTVQLAEKKITLHVTPTEVNVAAEPALLEQALGNLLDNAIDFTPESGCITLSAEVDQEHVTLKVLDTGSGIPDYALSRIFERFYSLPRANGQKSSGLGLAFVSEVARLFNGEVTLRNVQEGGVLASLRLHRHFT”, the “total protein half-life in vivo” value was 6.22 ± 0.68 h under setting [1]; 7.24 ± 0.64 h under setting [2]; 6.18 ± 0.49 h under setting [3]; 5.7 ± 0.74 h under setting [4]; 5.49 ± 0.91 h under setting [5]; 3.16 ± 0.14 h under setting [6]. For the same sequence, the “total protein half-life in vivo” value by setting is: under setting [7], 6.54 ± 1.2 h; under setting [8], 9.95 ± 2.1 h; under setting [9], 5.81 ± 0.57 h; under setting [10], 12.1 ± 0.34 h; under setting [11], 6.86 ± 0.85 h; under setting [12], 12.8 ± 1.8 h.

Consider “MQTIIRVEKLAKTFNQHQALHAVDLNIHHGEMVALLGPSGSGKSTLLRHLSGLITGDKSVGSHIELLGRTVQREGRLARDIRKSRAHTGYIFQQFNLVNRLSVLENVLIGALGSTPFWRTCFSWFTGEQKQRALQALTRVGMVHFAHQRVSTLSGGQQQRVAIARALMQQAKVILADEPIASLDPESARIVMDTLRDINQNDGITVVVTLHQVDYALRYCERIVALRQGHVFYDGSSQQFDNERFDHLYRSINRVEENAKAA”, for which the “total protein half-life in vivo” value runs as follows: under setting [11], 0.231 ± 0.32 h; under setting [12], 0.931 ± 0.95 h.

Consider “MSEKSIVQEARDIQLAMELITLGARLQMLESETQLSRGRLIKLYKELRGSPPPKGMLPFSTDWFMTWEQNVHASMFCNAWQFLLKTGLCNGVDAVIKAYRLYLEQCPQAEEGPLLALTRAWTLVRFVESGLLQLSSCNCCGGNFITHAHQPVGSFACSLCQPPSRAVKRRKLSQNPADIIPQLLDEQRVQAV [P0ABY7]”, for which the “total protein half-life in vivo” value runs as follows: under setting [1], > 8 h; under setting [2], 4.44 h; under setting [6], 0.252 h; under setting [7], 0.52 h.

In the case of “MRTLQGWLLPVFMLPMAVYAQEATVKEVHDAPAVRGSIIANMLQEHDNPFTLYPYDTNYLIYTQTSDLNKEAIASYDWAENARKDEVKFQLSLAFPLWRGILGPNSVLGASYTQKSWWQLSNSEESSPFRETNYEPQLFLGFATDYRFAGWTLRDVEMGYNHDSNGRSDPTSRSWNRLYTRLMAENGNWLVEVKPWYVVGNTDDNPDITKYMGYYQLKIGYHLGDAVLSAKGQYNWNTGYGGAELGLSYPITKHVRLYTQVYSGYGESLIDYNFNQTRVGVGVMLNDLF [P0A921]”, the “total protein half-life in vivo” value amounted to 6.42 ± 0.11 h under setting [1]; 6.15 ± 0.48 h under setting [2]; 7.24 ± 0.85 h under setting [4]; 5.96 ± 0.66 h under setting [5]; 3.01 ± 0.048 h under setting [6]; 6.37 ± 1.1 h under setting [7]. Also, the “total protein half-life in vivo” value under setting [8] amounted to 14.2 ± 0.33 h; the “total protein half-life in vivo” value under setting [9] is 6.28 ± 0.44 h; the “total protein half-life in vivo” value under setting [10] is 13.3 ± 0.75 h; the “total protein half-life in vivo” value under setting [11] was 6.13 ± 0.1 h; the “total protein half-life in vivo” value under setting [12] is 14.2 ± 0.75 h.

On to “MWKRLLIVSAVSAAMSSMALAAPLTVGFSQVGSESGWRAAETNVAKSEAEKRGITLKIADGQQKQENQIKAVRSFVAQGVDAIFIAPVVATGWEPVLKEAKDAEIPVFLLDRSIDVKDKSLYMTTVTADNILEGKLIGDWLVKEVNGKPCNVVELQGTVGASVAIDRKKGFAEAIKNAPNIKIIRSQSGDFTRSKGKEVMESFIKAENNGKNICMVYAHNDDMVIGAIQAIKEAGLKPGKDILTGSIDGVPDIYKAMMDGEANASVELTPNMAGPAFDALEKYKKDGTMPEKLTLTKSTLYLPDTAKEELEKKKNMGY”, for which the “total protein half-life in vivo” value is, setting by setting: under setting [1], 5.47 ± 0.2 h; under setting [2], 5.64 ± 0.063 h; under setting [3], 6.128 ± 0.015 h; under setting [4], 5.93 ± 0.48 h; under setting [5], 5.06 ± 0.13 h; under setting [6], 3.09 ± 0.11 h. For the same sequence, the “total protein half-life in vivo” value came out at 6.11 ± 0.068 h under setting [7]; 12 ± 1.7 h under setting [8]; 5.68 ± 1.1 h under setting [9]; 11.9 ± 1.6 h under setting [10]; 5.4 ± 0.41 h under setting [11]; 13.35 ± 0.018 h under setting [12].

On to “MSKIKGNVKWFNESKGFGFITPEDGSKDVFVHFSAIQTNGFKTLAEGQRVEFEITNGAKGPSAANVIAL [P0A972]”, for which the “total protein half-life in vivo” value runs as follows: under setting [1], 3.54 ± 0.22 h; under setting [2], 2.27 ± 0.041 h; under setting [3], 1.7 ± 0.036 h; under setting [4], 3.44 ± 0.12 h; under setting [5], 1.96 ± 0.28 h; under setting [6], 2.156 ± 0.014 h. Also, the “total protein half-life in vivo” value runs as follows: under setting [7], 2.37 ± 0.17 h; under setting [8], 2.62 ± 0.54 h; under setting [9], 1.8 ± 0.15 h; under setting [10], 2.23 ± 0.19 h; under setting [11], 1.945 ± 0.018 h; under setting [12], 3.16 ± 0.3 h.

Regarding “MNLSLRRSTSALLASSLLLTIGRGATLPFMTIYLSRQYSLSVDLIGYAMTIALTIGVVFSLGFGILADKFDKKRYMLLAITAFASGFIAITLVNNVTLVVLFFALINCAYSVFATVLKAWFADNLSSTSKTKIFSINYTMLNIGWTIGPPLGTLLVMQSINLPFWLAAICSAFPMLFIQIWVKRSEKIIATETGSVWSPKVLLQDKALLWFTCSGFLASFVSGAFASCISQYVMVIADGDFAEKVVAVVLPVNAAMVVTLQYSVGRRLNPANIRALMTAGTLCFVIGLVGFIFSGNSLLLWGMSAAVFTVGEIIYAPGEYMLIDHIAPPEMKASYFSAQSLGWLGAAINPLVSGVVLTSLPPSSLFVILALVIIAAWVLMLKGIRARPWGQPALC”, the “total protein half-life in vivo” value under setting [6] is 1.77 h.

The record behind these values is the supplement of paper PMC11246515.
